Data from patent publication US8409836B2, “Treatment of cellulosic material and enzymes useful therein” (Roal Oy, priority 2005, dated 2013).

Assays:
[1] = Hydrolysis with endoglucanase preparations, corn stover; assay type: biochemical; details: with CBHI and CBHII of T. reesei; 48 h, 45° C., pH 5.0
Experimental: The preparations containing the endoglucanases were compared in hydrolysis studies mixed with the purified CBH/Cel7 and CBH/Cel6 enzymes on several pre-treated substrates. Culture filtrates of T. reesei, containing different cloned endoglucanase enzymes were obtained as described in Example 19. The enzymes were enriched by removing thermolabile proteins from the mixtures by a heat treatment (60° C., 2 h, pH 5) and the supernatant was used for the hydrolysis studies. In addition, pure T. reesei cellulases (purified as described by Suurnäkki et al., 2000) were used in the enzyme mixtures. The endoglucanases used in the experiment were:
Steam exploded corn stover fibre (steam pre-treatment at 210° C. for 5 min), dry matter 31.0% (SECS).
The endoglucanases to be studied (dosage 840 nkat/g dry matter, based on endoglucanase activity against HEC according to IUPAC, 1987) were used either with cellobiohydrolases of T. reesei (CBHI/Cel7A, 8.1 mg/g d.m. and CBHII/Cel6A, 2.0 mg/g d.m.) or with Thermoascus aurantiacus Cel7A with genetically attached CBD of T. reesei (10.1 mg/g d.m.). Purified (Suurnäkki et al., 2000) EGI (Cel7B) and EGII (Cel5A) of T. reesei were also included in the experiments for comparison. All mixtures were supplemented with additional β-glucosidase from Novozym 188 (to make the total β-glucosidase dosage 560 nkat/g d.w., the relatively high dosage was used to compensate the differences in the background activities of the different EG preparations). Triplicate tubes were incubated in mixing at 45° C. for 48 h and reference samples with inactivated enzymes and corresponding substrates were prepared. The release of hydrolysis products was measured as reducing sugars with DNS method using glucose as standard (Table 31).

[2] = Endoglucanase activity on carboxymethyl cellulose; assay type: biochemical; details: purified endoglucanase, 50° C., procedure of IUPAC 1987
In short: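 Endoglucanase activity of purified enzymes from Acremonium thermophilum ALKO4245 and Thermoascus aurantiacus ALKO4242 measured on carboxymethyl cellulose by the IUPAC 1987 standard procedure. Protein by Lowry for purified preparations; the A. thermophilum supernatant was pre-incubated 24 h at 70 °C before purification.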

B1: Ta EG_28: endoglucanase of Thermoascus aurantiacus ALKO4242, gene Ta cel5A, amino acid SEQ ID NO: 10 (protein)
chain: MKLGSLVLALSAARLTLSAPLADRKQETKRAKVFQWFGSNESGAEFGSQNLPGVEGKDYIWPDPNTIDTLISKGMNIFRVPFMMERLVPNSMTGSPDPNYLADLIATVNAITQKGAYAVVDPHNYGRYYNSIISSPSDFQTFWKTVASQFASNPLVIFDTNNEYHDMDQTLVLNLNQAAIDGIRSAGATSQYIFVEGNSWTGAWTWTNVNDNMKSLTDPSDKIIYEMHQYLDSDGSGTSATCVSSTIGQERITSATQWLRANGKKGIIGEFAGGANDVCETAITGMLDYMAQNTDVWTGAIWWAAGPWWGDYIFSMEPDNGIAYQQILPILTPYL
- Hydrolysis products as reducing sugars, SECS [1]: 3.9 mg/mL
- Specific activity on CMC [2]: 4290 nkat/mg
